The data set in a line: soluble on expression in E. coli; label from the status in PepcDB or PDB records.
“MPQDMSQFLQVFFEETEEHLATLELLLIGLDLDRPDSETLHGIFRAAHSIKGSSGMFGFDDITAVTHELETLLDRIRCGQMHLRPDMISSFLEARDVLQRLLDAHRSGRPDPGVPLLETVERLRGWLRVPEQEAAEEGFGLFDDAPARETADDDAFGFFDEGPGAPERAAAPEAFGLFDEAPGAPAASEAFGLFDEAPGSPPAEERAFGLFDGAPGSPAAPSAPAQAVAAPARGAVAPVRGDGESGSIRVSVEKIDSLINLVGELVITQAMLGQLGEQLDPSRHERLQHALAQLEHNTRDLQESVMSIRMLPINFIFSRFPRLVRDTATRLGKQVELHLHGEHTELDKSVIEKLSDPLTHIVRNSIDHGIETPAERLAAGKPASGTVKLAASHQGGSVVVEVSDDGRGLSRPRILAKARERNLPVHDGMSDAEVWQLVFMPGFSTAETVTELSGRGVGMDVVKRNIGAMGGRIDIDSAPGMGTRIGIRLPLTLAILDGLIVAVEAVNYVIPLTYIVESLQARSDDVRGLGGEDNAMIRVRGEYLPLFSLHELLRIGGEAPAPEQGIVVILESEGRSFALQVDELVGQQQVVIKSLEQNFRRVEGIAGATIMGDGSVALILDVDALPRLAAREDTADE”: the “soluble on expression in E. coli” value is reported as “not soluble”.
Under “MPQFLKGVTLENREGDELPAEEHLKGKIIGLYFSASWCPPCRAFTPKLKEFFEEIKKTHPEFEIIFVSRDRNSSDLVTYFKEHQGEWTYIPFGSDKIMSLMQKYEVKTIPAMRIVNDQGEVIVQDARTEIQNKGENVEGLWAEWMALIK” stands “not soluble”; under “MPQILVDADACPVKAEIKQVAKEFQLEVTFVASFNHYSVNTNGENWIFVDTGKESADMRMMNLAKKGDIIVTQDIGLASILLAKGTFVFSNRGELYREEEMSLMLDIRYRHAKERQQGKYSKGPKAMSDQDRSLFKDRLTTFLQNKLEHHHHHH”, “soluble”; under “MPREYEFAEKILFTEEEIRTRIKEVAKRIADDYKGKGLRPYVNPLVLISVLRGSFMFTADLCRALCDFNVPVRMEFICVSSYGEGLTSSGQVRMLLDTRHSIEGHHVLIVEDIVDTALTLNYLYHMYFTRRPASLKTVVLLDKREGRRVPFSADYVVANIPNAFVIGYGLDYDDTYRELRDIVVLRPEVYAEREAARQKKQRAIGSADTDRDAKREFHSKY”, “soluble”.
Under “MPSAMNERTVAELEKLLRYIAANLKQRGREILTNYPITPPQFVALQWLLEEGDLTVGELSNKMYLACSTTTDLVDRMERNGLVARVRDEHDRRVVRIRLLEKGERIIEEVIEKRQRDLANVLESFSDEEIVVFERCLRKLHQEMTKE” stands “soluble”; under “MPSERRPFQTAFLSNRKTVGKLAERVQSRYDGLHKFKHICSAAMALIKEPLDKVKQRNEELEAAEEAAAQEALGREQEAARVSEWEERYKLSRSEFEQFWKGLPQTVQNKLQASQKTWKSGMDKICANNAKAEGKTPNGIKFSELACKTAKTEARLEELHNRKKALIDEMAREADKKELSKRL”, “not soluble”.
For the sequence “MPSETLWEIAKAEVEKRGINGSEGDGAEIAEKFVFFIGSKNGGKTTIILRCLDRDEPPKPTLALEYTYGRRAKGHNTPKDIAHFWELGGGTSLLDLISIPITGDTLRTFSLVLVLDLSKPNDLWPTMENLLQATKSHVDKVIMKLGKTNAKAVSEMRQKIWNNMPKDHPQDHELIDPFPVPLVIIGSKYDVFQDFESEKRKVICKTLRFVAHYYGASLMFTSKSEALLLKIRGVINQLAFGIDKSKSICVDQNKPLFITAGLDSFGQIGSPPVPENDIGKLHAHSPMELWKKVYEKLFPPKSINTLKDIKDPARDPQYAENEVDEMRIQKDLELEQYKRSSSKSWKQIELDS”, the “soluble on expression in E. coli” value is on record as “not soluble”.
For the sequence “MPSFREDALSRIRHDGDFDAVVIGGGINGIAAYRDLALQGLRVLLVERNDFSSGCSAAPSRMIHGGLRYLENGEFGLVAESLRERDALLTLAPHMVQPLPTTIPIFSMFSGLFNAAATFFGSGGKPASRGALAIKAGLTLYDFVTRKNRLLPRHEFRGAGKTLKRWPGLTPDIRYSATYYDAWISQPERLALELLIDTSADAPQSIALNYAELVRNGDEYHIRAEETDETLPIRPRIIVNATGAWIDETIGTLSAGPAAEKQKPTVSGTKGSHLIIANDGLLKALNGHMIFFENADNRVCILFPYLGRVLAGSTDIKVDRPERVRCEPDERDYILDAIRQVFPDITVDHSDIVFSFSGIRPLPRSDAAFTGRISRSHFIHRVAGDPPQLCMIGGKWTTFRAFGEQVSDEVLAFLGRKRLTGTMNRPIGGGRNFPTGAGRLPALLSEQFSIDRRRAQHLALAYGSRAFELMGFCRGRPDDAPLSQKSPITAAEILWLIRCEHVRHLTDLILRRTTLAIAGLIDADLIDAILGVAARELGWTPTRAAVERQQLTQELETFYGVTPAMLQNRCKENALEHHHHHH”, the “soluble on expression in E. coli” value is “soluble”.
Turning to “MPSGLEQCAPRCRALLQGESGVQIQGHYELKFEAVREAFAALFEDSQERGAALCIQVGGETVIDLWAGTADKDGAEAWHSDTIANLFSCTKTFTAVTALQLVAEGKLKLDAPVADYWPEFAAAGKAAITLRQLLCHQAGLPAVRELLPAQALYEWQTMVDALAAEQPWWTPGEGHGYAAITYGWLVGELIRRADGRGPGESIVARVARPLGLDFHVGLADEEFYRVAHIARGKGNMGDAAAQRLLQVTMREPDAMSTRAFTNPPSILTSTNKPEWRRMQQPAANGHGNARSLAGFYSGLLDGSLLEADMLEELTREHSLGMDKTLLTQTRFGLGCMLDQPQVANATFGLGARAFGHPGAGGSIGFADPEHDVAFGFVTNTLGPYVLMDPRAQKLVRVLSDCLLEHHHHHH”, the “soluble on expression in E. coli” value is “not soluble”.
As for “MPSIYITGVDPTIVKIHEIQGTGTASPLVNNVVTIEAIVVGDFQDGDGDISRNLRGFYVQEEDADVDGNVATSEGIFIFENGNFITDVNVGDKVQITGTVDEFFGETQIDTITNITVISSGNTLPTAANITLPTAGTTESQGGTPQPDLEAFEGMLVKFTDTLTITEMFNLDRFNEIKLSQGGRPQQFTQFNDANVAGYGAYREEIGARTITYDDGLSVQNAEISNLDGFGSSFSTASDIRMGDTINNLTGVLSYQWAGNASSGATWRVRSAVDGTNQFTKVNDRPVTPENVGGSLKVTGFNVLNYFKTIDLEHHHHHH”, the entry is “not soluble”.
Under “MPSKKKKIVVIGRSNLQNLYIHTILLKKLPAEIYLIDEQAKTSVQDFEYASYYHSSATVNTGTFNECRSADLVLFFQEEMSNESFSNEDNLALIKEKVKKMMATGFQGIVLVATAESNIVASLIKHFSGLPANQIITPGTMLATSYFQVEIAKLFKISPKNVHGYIIGESTQDVIPVWSRAFLGGKPILSYLAEEQKRITSDDLQNLTNMITKIPDFPVETKDGCSFRFSTVTVLAELTEVILRDEARVLTVGVEVKEAYGLERPVFVSVPAVVGAEGVRELLELNLSDDEQKELKRITTKTTEKLGLLHNKGGIS” stands “not soluble”.
Regarding “MPSTLQGTFHTYRIIRRLGQGAFGEVSLAGVLETGEVVALKRIHIRNTGGIPDVVVREIKALQSVSHPNVVALLDVFPKGQAIYLVQEYCTTDLAALLRRLPAPPPERIAKGLMLQLCRGLEALHAEGIMHRDVKPSNTLLSAASGTAKLADCGLARPLDGGERPAYTHAVATRWYRAPELLYGARAYGPAVDVWALGLVFAELLGLSPLVPGDNDIDQLGRVIATFGSMEPVWLGVRALPDWGKIAFPHCEPLPLGDLLPGAPAAALEFLAAFLRYDPAKRITAACAVRSTYLTATQPL”, the “soluble on expression in E. coli” value is listed as “not soluble”.
In the case of “MPTLGFRFRAYTDEQTLRALKAQLKLACKIYNTLRWADIYFYQRDGKGLTQTELRQLALDLRKQDDEYKQLYSQVVQQIADRYYEARQRFFEGLARFPKEKKPHKYYSLVYPQYGWKILHVREIRKGSKKKLITLKLSNLGTFKVIVHRDFPLDKVKRVVVKLTRSERIYITFVVDHEFPKLPNTGKVVAIDVGVEKLLVTSDGEYFPNLRPYEKALWKVKHLHRELSRKKFLSNNWFKAKVKLARAYEYLKNLRTDLYMKLGKWFAEHYDVVVMEGIHAKQLVGKSLRSLRRRLSDVGFGELRGVLKYQLEKYGKKLILVNPAYTSKTCARCGYVKNDLSLSDRVFVCPNCGWIADRDYNASLNILRGSGSERPLVPVELRPLPVLWQGGAMKQEAPSFMRGLEHHHHHH”, the “soluble on expression in E. coli” value is recorded as “not soluble”.
As for “MPTPRRSGRVIVYTGDGKGKTTAALGLALRAVGRGMNVAVLQFLKSPERTYGEQLALERLGVDVRQLGAGFTWTKTPDIHREALKRAWAVAKEYVYSGRYDMIVLDELNNVLAIDRFPVEDIVSVSEVLELIRTRPPSLHLVITGRAARPELMAAADIVTEMKLIKHDYEQGRTAMKGIEF”, the entry is “soluble”.
Under “MPTVRLADGDLNYSLEGPAGAPVLLLSNSLGTDLGMWDTQIPALTAHFRVLRYDTRGHGASLVTPGPYAIGQLGADVLALLDALELPRVHFCGLSMGGLIGQWLGIHAGERLGRLVLCNTAAKIASDEVWNTRIDTVLKGGEQAMRDLRDASVARWFTAGFAEREPAQVERIVAMLAATSPQGYAANCAAVRDADFREQLGLVQAPTLIVAGSHDAVTTPDNARFMQARIADAQLVEFAAAHLSNVEAGDAFSRRLVDFLL” stands “not soluble”; under “MPVAVMADNAFSFRKLLDQCENQELEAPGGIATPPVYGQLLALYLLQNDMNNARYLWKRIPPAIKSANSELGGIWSVGQRIWQRDFPGIYTTINAHQWSETVQPIMEALRDATRRRAFALVSQAYTSIIADDFAAFVGLPVEEAVKGVLEQGWQADSTTRMVLPRKPAPGALDVSLNRFIPLSEPAPVPPIPNEQQLARLTDYVAFLEN”, “not soluble”; under “MPVNNENLTSVLDARPFELSEEQKSPLFKANLLAELVHHYQCNEMYRKFCQKNKFDPLVFDGEVADIPPIPVHIFKAIGHKLSSVSDDTIKAKLQSSATSGVPSTILLDKVTARRQTRAMARVMQEVLGPKRRPFCIMDIDPTSPNATNLGARIAAVKGYLNFASTSKYFIDADSPSAPLEFLEQKFVEHLNSLASEEPLIIFGFTFVLYHTVFKTLKDKGISFQLPKGSQVIHIGGWKKLESEKVDKITFNRDIASVLGISPDDVVDIYGFTEQMGLNYPDCKAGWKHIHAYSDVIIRDESNLEVCGPGKVGLLEFVSPLPHSYPGNVVLTDDLGVIEESLCECGKAGKRFKVIGRAKKAEVRGCGDVMSEKLTKKPSYKPLSQQEERLTIYHSPIFLEHHHHHH”, “not soluble”.
As for “MPWWEQNIGMGGGALSAKQQTSADSRTESLQSLSDERRDFIQKSLDAWCANLGYKDSTVNMLTLSRTLCISKDELSVFFDQYLKTTFRIWLGDIRFNAAKKMMLEFPDYSNDIISAECGFSARTYLYRIFKSKEGCTPTEWREEQVANAAPDDKKQD”, the entry is “not soluble”.
For the sequence “MPYKEKDIEKKYFSIGEVSAMFKVAPSLIRFWETEFDIFKPQKNRRGNRQFTKEDIENFRLIYNLVKERGYTLQGAKEMLKVDRHKSKDKMELLDSLQKVRDFLVDLKKQME”, the “soluble on expression in E. coli” value is “not soluble”.
Under “MQALNSISSLQTSASLFPVSLNSDVSANTSTSSKELKAVIDQLVQALTQSGQLDETSPLGKMLAKAMAADGKSANSIDDITASLDKLIHEKLGDNFGASAGIGAGGGGGGIGGAGSGSGVGGGLSSDAGAGQSDLMSQVLNGLGKAVLDDLLTPSGEGGTTFSSDDMPTLEKVAQFMDDNKAQFPTRDGGSWMNELKEDNGLDAQETAQFRSALDVIGQQLGQQQGDASGVTSGGGLGSPVSDSSLGNPAIDANTGPAANGNASVDVGQLIGQLIDRGLQSVSSGGGLGTPVDNSTQPTGGTPAANPTGNVSNQDLGQLLSGLLQRGLEATLQDAGNTGADLQSSAAQVAAQLINALLQGTNNQTNQAVALEHHHHHH” stands “soluble”.
